Assay results as given in US20260317429 (published 2026).
Where two headings read alike, the source gives them in different places.

T1: FGFR2IIIb-his (ECD) (human)
T1 chain: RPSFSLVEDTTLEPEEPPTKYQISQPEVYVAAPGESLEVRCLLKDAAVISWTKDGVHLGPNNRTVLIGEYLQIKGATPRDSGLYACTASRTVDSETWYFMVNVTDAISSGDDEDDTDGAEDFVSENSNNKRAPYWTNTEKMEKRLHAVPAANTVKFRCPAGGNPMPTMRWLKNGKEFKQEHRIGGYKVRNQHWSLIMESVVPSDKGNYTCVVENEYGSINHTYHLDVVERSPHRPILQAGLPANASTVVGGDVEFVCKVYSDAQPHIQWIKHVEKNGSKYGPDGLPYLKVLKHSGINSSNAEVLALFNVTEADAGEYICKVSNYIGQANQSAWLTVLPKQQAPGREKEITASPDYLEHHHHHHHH

T2: mouse FGFR2IIIb (mouse, UniProt P21803)
T2 chain: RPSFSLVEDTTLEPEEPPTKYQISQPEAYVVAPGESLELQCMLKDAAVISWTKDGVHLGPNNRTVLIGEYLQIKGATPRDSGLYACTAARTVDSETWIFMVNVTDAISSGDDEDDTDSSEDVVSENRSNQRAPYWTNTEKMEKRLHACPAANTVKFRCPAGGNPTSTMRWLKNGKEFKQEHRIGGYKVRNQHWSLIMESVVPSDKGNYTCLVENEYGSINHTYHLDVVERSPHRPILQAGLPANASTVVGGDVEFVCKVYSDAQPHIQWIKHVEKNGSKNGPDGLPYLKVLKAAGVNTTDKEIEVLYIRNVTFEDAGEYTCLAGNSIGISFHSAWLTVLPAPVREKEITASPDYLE


Legend:
FGFR2IIIb-Fc [1] = biological target: T3, FGFR2IIIb-Fc (human, UniProt P21802); assay: competition ELISA, FGF10
Target sequence in this assay (P21802 22-377): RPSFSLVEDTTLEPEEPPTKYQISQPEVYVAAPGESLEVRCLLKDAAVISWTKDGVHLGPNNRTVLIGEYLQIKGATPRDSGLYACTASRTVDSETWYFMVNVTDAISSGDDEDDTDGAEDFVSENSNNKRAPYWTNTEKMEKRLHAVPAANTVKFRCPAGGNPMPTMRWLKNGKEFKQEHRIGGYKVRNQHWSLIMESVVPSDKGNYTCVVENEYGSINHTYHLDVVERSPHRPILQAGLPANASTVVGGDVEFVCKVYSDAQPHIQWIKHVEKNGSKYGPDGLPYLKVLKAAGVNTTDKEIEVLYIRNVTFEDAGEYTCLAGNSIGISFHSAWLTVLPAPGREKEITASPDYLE

FGFR2IIIb-Fc [2] = biological target: T3, FGFR2IIIb-Fc; assay: competition ELISA, FGF1
Target sequence in this assay (P21802 22-377): as above

FGFR2IIIb-his (ECD) [3] = biological target: T1, FGFR2IIIb-his (ECD); assay: ELISA
FGFR2IIIb-his (ECD) [4] = biological target: T1, FGFR2IIIb-his (ECD); assay: SPR
FGFR2IIIb on cells [5] = biological target: T4, FGFR2IIIb on cells (human, UniProt P21802); assay: FACS, CHO-FGFR2IIIb
Target sequence in this assay (P21802 22-377): as above

FGFR2IIIb on cells [6] = biological target: T4, FGFR2IIIb on cells; assay: FACS, SNU-16
Target sequence in this assay (P21802 22-377): as above

FGFR2IIIb-Fc [7] = biological target: T3, FGFR2IIIb-Fc; assay: competition ELISA, FGF1; remark: listed apart in the source
FGFR2IIIb-Fc [8] = biological target: T3, FGFR2IIIb-Fc; assay: competition ELISA, FGF10; remark: listed apart in the source
FGFR2IIIb-Fc [9] = biological target: T3, FGFR2IIIb-Fc; assay: competition ELISA, FGF7
mouse FGFR2IIIb = biological target: T2, mouse FGFR2IIIb; assay: ELISA
FGFR2IIIb-Fc [10] = biological target: T3, FGFR2IIIb-Fc; assay: competition ELISA, FGF10; remark: listed apart in the source
FGFR2IIIb on cells [11] = biological target: T4, FGFR2IIIb on cells; assay: FACS, CHO-FGFR2IIIb; remark: listed apart in the source
FGFR2IIIb-Fc [12] = biological target: T3, FGFR2IIIb-Fc; assay: competition ELISA, FGF1; remark: listed apart in the source
FGFR2IIIb on cells [13] = biological target: T4, FGFR2IIIb on cells; assay: FACS, SNU-16; remark: listed apart in the source
FGFR2IIIb-his (ECD) [14] = biological target: T1, FGFR2IIIb-his (ECD); assay: ELISA
FGFR2IIIb-Fc [15] = biological target: T3, FGFR2IIIb-Fc; assay: competition ELISA, FGF7; remark: listed apart in the source
FGFR2IIIb-Fc [16] = biological target: T3, FGFR2IIIb-Fc; assay: competition ELISA, FGF7; remark: listed apart in the source
FGFR2IIIb-his (ECD) [17] = biological target: T1, FGFR2IIIb-his (ECD); assay: ELISA
FGFR2IIIc-his (ECD) = FGFR2IIIc-his (ECD) (human); assay: ELISA
FGFR2IIIb-Fc [18] = biological target: T3, FGFR2IIIb-Fc; assay: competition ELISA, FGF10; remark: listed apart in the source

Binder | IC50 (FGFR2IIIb-Fc [1]) [µg/mL] | IC50 (FGFR2IIIb-Fc [2]) [µg/mL] | EC50 (FGFR2IIIb-his (ECD) [3]) [µg/mL] | Kd (FGFR2IIIb-his (ECD) [4]) [nM] | EC50 (FGFR2IIIb on cells [5]) [µg/mL] | EC50 (FGFR2IIIb on cells [6]) [µg/mL] | further results
III-11 (antibody, V domains shown) VH: QVQLVQSGAEVKKPGSSVKVSCKASGYTFAIYNMHWVRQAPGQGLEWIGAIYPDNGDTFYNQKFKGKATLTADKSTSTAYMELSSLRSEDTAVYYCARGDFGYWGQGTLVTVSS VL: DIVMTQSPSSLSASVGDRVTITCKASQDVNIDPAWYQQKPGKAPKLLIYLASYRYTGVPSRFSGSGSGTDFTFTISSLQPEDFATYYCQQHYSTPYTFGQGTKLEIK | 0.976 | 1.18 | 0.051 | 1.24 | 0.19 | 0.319 | 
III-15 (antibody, V domains shown) VH: QVQLVQSGAEVKKPGSSVKVSCKASGYTFAIYNMHWVRQAPGQGLEWIGAIYPDNGDTFYNQKFKGKATLTADKSTSTAYMELSSLRSEDTAVYYCARGDFGYWGQGTLVTVSS VL: DIVMTQSPSSLSASVGDRVTITCKASQDVNIDVAWYQQKPGKAPKLLIYLASYRYTGVPSRFSGSGSGTDFTFTISSLQPEDFATYYCQQTYSTPYTFGQGTKLEIK | 0.805 | 0.941 | 0.042 | 1.04 | 0.26 | 0.378 | 
III-13 (antibody, V domains shown) VH: QVQLVQSGAEVKKPGSSVKVSCKASGYTFAIYNMHWVRQAPGQGLEWIGAIYPDNGDTSYNQKFKGKATLTADKSTSTAYMELSSLRSEDTAVYYCARGDFGYWGQGTLVTVSS VL: DIVMTQSPSSLSASVGDRVTITCKASQDVNIDVAWYQQKPGKAPKLLIYLASYRYTGVPSRFSGSGSGTDFTFTISSLQPEDFATYYCQQTYSTPYTFGQGTKLEIK | 0.905 | 0.966 |  | 1.23 |  |  | 
III-12 (antibody, V domains shown) VH: QVQLVQSGAEVKKPGSSVKVSCKASGYTFANYNMHWVRQAPGQGLEWIGAIYPDNGDTSYNQKFKGKATLTADKSTSTAYMELSSLRSEDTAVYYCARGDFGYWGQGTLVTVSS VL: DIVMTQSPSSLSASVGDRVTITCKASQDVNIDVAWYQQKPGKAPKLLIYLASYRYTGVPSRFSGSGSGTDFTFTISSLQPEDFATYYCQQTYSTPYTFGQGTKLEIK | 0.999 | 1.08 |  | 1.32 |  |  | 
III-14 (antibody, V domains shown) VH: QVQLVQSGAEVKKPGSSVKVSCKASGYTFAIYNMHWVRQAPGQGLEWIGAIYPGNGDTFYNQKFKGKATLTADKSTSTAYMELSSLRSEDTAVYYCARGDFGYWGQGTLVTVSS VL: DIVMTQSPSSLSASVGDRVTITCKASQDVNIDVAWYQQKPGKAPKLLIYLASYRYTGVPSRFSGSGSGTDFTFTISSLQPEDFATYYCQQTYSTPYTFGQGTKLEIK | 0.937 | 0.974 | 0.058 | 1.26 | 0.263 | 0.526 | 
III-10 (antibody, V domains shown) VH: QVQLVQSGAEVKKPGSSVKVSCKASGYTFANYNMHWVRQAPGQGLEWIGAIYPGNGDTSYNQKFKGKATLTADKSTSTAYMELSSLRSEDTAVYYCARGDFGYWGQGTLVTVSS VL: DIVMTQSPSSLSASVGDRVTITCKASQDVNIDVAWYQQKPGKAPKLLIYSASYRYTGVPSRFSGSGSGTDFTFTISSLQPEDFATYYCQQHYSTPYTFGQGTKLEIK |  |  | 0.052 | 68.1 | 0.257 | 0.471 | IC50 (FGFR2IIIb-Fc [7]): 0.581 µg/mL; IC50 (FGFR2IIIb-Fc [8]): 0.724 µg/mL; IC50 (FGFR2IIIb-Fc [9]): 0.565 µg/mL; EC50 (mouse FGFR2IIIb): 0.127 µg/mL
III-0 (antibody, V domains shown) VH: QVQLQQPGAELVRPGASVKMSCKASGYTFANYNMHWVKQTPRQGLEWIGAIYPGNGDTSYNQKFKGKATLTADKSSSTAYMQLSSLTSEDSAVYYCARGDFGYWGQGTTLTVSS VL: DIVMTQSHKFMSTSVGDRVTITCKASQDVNIDVAWYQQKPGQSPKLLIYSASYRYTGVPDRFTGSGSGTDFTFTISSVQAEDLAVYYCQQHYSTPYTFGGGTKLEIK |  |  | 0.048 | 81.3 | 0.342 | 0.74 | IC50 (FGFR2IIIb-Fc [7]): 0.692 µg/mL; IC50 (FGFR2IIIb-Fc [10]): 0.84 µg/mL; EC50 (FGFR2IIIb on cells [11]): 1.01 µg/mL; IC50 (FGFR2IIIb-Fc [12]): 0.904 µg/mL; IC50 (FGFR2IIIb-Fc [8]): 0.745 µg/mL; EC50 (FGFR2IIIb on cells [13]): 1.64 µg/mL; IC50 (FGFR2IIIb-Fc [9]): 0.603 µg/mL; EC50 (FGFR2IIIb-his (ECD) [14]): 0.0404 µg/mL; IC50 (FGFR2IIIb-Fc [15]): 0.694 µg/mL
27E9A11 (antibody, V domains shown) VH: QVQLQQPGAELVRPGASVKMSCKASGYTFANYNMHWVKQTPRQGLEWIGAIYPGNGDTSYNQKFKGKATLTADKSSSTAYMQLSSLTSEDSAVYYCARGDFGYWGQGTTLTVSS VL: DIVMTQSHKFMSTSVGDRVTITCKASQDVNIDVAWYQQKPGQSPKLLIYSASYRYTGVPDRFTGSGSGTDFTFTISSVQAEDLAVYYCQQHYSTPYTFGGGTKLEIK |  |  |  |  |  |  | IC50 (FGFR2IIIb-Fc [16]): 0.417 µg/mL; EC50 (FGFR2IIIb-his (ECD) [17]): 0.05 µg/mL; binding result (FGFR2IIIc-his (ECD)): no binding; IC50 (FGFR2IIIb-Fc [18]): 0.545 µg/mL
